The text below walks through data of US20240350588A1 (SUNSHINE LAKE PHARMA, published 2024).

B1: Fc-GDF15 fusion protein M2 (Fc fusion)
chain: APEAAGGPSVFLFPPKPKDTLMISRTPEVTCVVVDVSQEDPEVQFNWYVDGVEVHNAKTKPREEQFNSTYRVVSVLTVLHQDWLNGKEYKCKVSNKGLPSSIEKTISKAKGQPREPQVYTLPPSQEEMTKNQVSLTCLVKGFYPSDIAVEWESNGQPENNYKTTPPVLDSDGSFFLYSRLTVDKSRWQEGNVFSCSVMHEALHNHYTQESLSLSLGGGGGSGGGGSAPAPAPAPAPAPAPAPAPAPGGGGSGGGGSARNGDHCPLGPGRCCRLHTVRASLEDLGWADWVLSPREVQVTMCIGACPSQFRAANMHAQIKTSLHRLKPDTVPAPCCVPASYNPMVLIQKTDTGVSLQTYDDLLAKDCHCI
B2: Fc-GDF15 fusion protein M9 (Fc fusion)
chain: APEAAGGPSVFLFPPKPKDTLMISRTPEVTCVVVDVSQEDPEVQFNWYVDGVEVHNAKTKPREEQFNSTYRVVSVLTVLHQDWLNGKEYKCKVSNKGLPSSIEKTISKAKGQPREPQVYTLPPSQREMTKNQVSLTCLVKGFYPSDIAVEWESNGQPENNYKTTPPVLDSDGSFFLYSRLTVDKSRWQEGNVFSCSVMHEALHNHYTQKSLSLSLGGGGGSGGGGSAPAPAPAPAPAPAPAPAPAPGGGGSGGGGSDHCPLGPGRCCRLHTVRASLEDLGWADWVLSPREVQVTMCIGACPSQFRAANMHAQIKTSLHRLKPDTVPAPCCVPASYNPMVLIQKTDTGVSLQTYDDLLAKDCHCI
B3: Fc-GDF15 fusion protein M36 (Fc fusion)
chain: B2 chain with R126E, K209E, K359Q
B4: Fc-GDF15 fusion protein M27 (Fc fusion)
chain: B2 chain with R126E, K209E, D278E, K321R
B5: Fc-GDF15 fusion protein M32 (Fc fusion)
chain: B2 chain with R126E, K209E, M309T
B6: Fc-GDF15 fusion protein M29 (Fc fusion)
chain: B2 chain with R126E, K209E, A299D
B7: Fc-GDF15 fusion protein M35 (Fc fusion)
chain: B2 chain with R126E, K209E, T346E
B8: Fc-GDF15 fusion protein M10 (Fc fusion)
chain: B2 chain with R126Q
B9: Fc-GDF15 fusion protein M26 (Fc fusion)
chain: B2 chain with R126E, K209E, D278E
B10: Fc-GDF15 fusion protein M33 (Fc fusion)
chain: B2 chain with R126E, K209E, R319Q
B11: Fc-GDF15 fusion protein M11 (Fc fusion)
chain: B2 chain with R126A
B12: Fc-GDF15 fusion protein M20 (Fc fusion)
chain: B2 chain with R126E, K209E, D257E
B13: Fc-GDF15 fusion protein M24 (Fc fusion)
chain: B2 chain with R126E, K209E, R273Q
B14: Fc-GDF15 fusion protein M30 (Fc fusion)
chain: B2 chain with R126E, K209E, A306S
B15: Fc-GDF15 fusion protein M34 (Fc fusion)
chain: B2 chain with R126E, K209E, A333S
B16: Fc-GDF15 fusion protein M25 (Fc fusion)
chain: B2 chain with R126E, K209E, R273H
B17: Fc-GDF15 fusion protein M22 (Fc fusion)
chain: B2 chain with R126E, K209E, H258E
B18: Fc-GDF15 fusion protein M31 (Fc fusion)
chain: B2 chain with R126E, K209E, A307E
B19: natural GDF15 (ACROBiosystems, GD5-H5149) (ligand)
chain: ARNGDHCPLGPGRCCRLHTVRASLEDLGWADWVLSPREVQVTMCIGACPSQFRAANMHAQIKTSLHRLKPDTVPAPCCVPASYNPMVLIQKTDTGVSLQTYDDLLAKDCHCI
B20: Fc-GDF15 fusion protein M21 (Fc fusion)
chain: APEAAGGPSVFLFPPKPKDTLMISRTPEVTCVVVDVSQEDPEVQFNWYVDGVEVHNAKTKPREEQFNSTYRVVSVLTVLHQDWLNGKEYKCKVSNKGLPSSIEKTISKAKGQPREPQVYTLPPSQEEMTKNQVSLTCLVKGFYPSDIAVEWESNGQPENNYKTTPPVLDSDGSFFLYSRLTVDKSRWQEGNVFSCSVMHEALHNHYTQESLSLSLGGGGGSGGGGSAPAPAPAPAPAPAPAPAPAPGGGGSGGGGSDCPLGPGRCCRLHTVRASLEDLGWADWVLSPREVQVTMCIGACPSQFRAANMHAQIKTSLHRLKPDTVPAPCCVPASYNPMVLIQKTDTGVSLQTYDDLLAKDCHCI
B21: Fc-GDF15 fusion protein M23 (Fc fusion)
chain: B20 chain with D257E
B22: Fc-GDF15 fusion protein M13 (Fc fusion)
chain: EAAGGPSVFLFPPKPKDTLMISRTPEVTCVVVDVSQEDPEVQFNWYVDGVEVHNAKTKPREEQFNSTYRVVSVLTVLHQDWLNGKEYKCKVSNKGLPSSIEKTISKAKGQPREPQVYTLPPSQEEMTKNQVSLTCLVKGFYPSDIAVEWESNGQPENNYKTTPPVLDSDGSFFLYSRLTVDKSRWQEGNVFSCSVMHEALHNHYTQESLSLSLGGGGGSGGGGSAPAPAPAPAPAPAPAPAPAPGGGGSGGGGSDHCPLGPGRCCRLHTVRASLEDLGWADWVLSPREVQVTMCIGACPSQFRAANMHAQIKTSLHRLKPDTVPAPCCVPASYNPMVLIQKTDTGVSLQTYDDLLAKDCHCI

Numbering of substitutions follows the chain as printed.

The experiment concerns the target T1, human GFRAL (UniProtKB-Q6UXVO) (human, UniProt Q6UXV0 19-394).
T1 sequence (looked up): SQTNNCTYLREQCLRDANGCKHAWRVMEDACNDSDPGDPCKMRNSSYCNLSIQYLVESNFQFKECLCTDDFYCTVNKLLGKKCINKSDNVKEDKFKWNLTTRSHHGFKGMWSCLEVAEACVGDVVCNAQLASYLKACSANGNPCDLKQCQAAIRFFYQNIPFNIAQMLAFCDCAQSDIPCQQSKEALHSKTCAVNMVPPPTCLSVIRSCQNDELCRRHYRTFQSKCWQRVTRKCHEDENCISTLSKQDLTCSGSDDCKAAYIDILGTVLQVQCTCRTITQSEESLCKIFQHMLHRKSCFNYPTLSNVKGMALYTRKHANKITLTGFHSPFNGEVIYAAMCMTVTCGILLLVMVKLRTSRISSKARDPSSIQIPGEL
Kind of experiment: cell-based or functional assay.
Consider B1, for which the “Relative activity ratio (native GDF15 EC50: Fc-GDF15 construct EC50), ERK1/2 phosphorylation HTRF in HEK293T cells expressing human GFRAL and RET” value (shortened to “Relative activity ratio”) amounted to 3.27 ratio.

As for B2, the “Relative activity ratio” value came out at 1.33 ratio.

B3: the “Relative activity ratio” value is 0.82 ratio.

In the case of B4, the “Relative activity ratio” value stood at 2.66 ratio.

Take B5: the “Relative activity ratio” value stood at 1.26 ratio.

On to B6, for which the “Relative activity ratio” value is 1.26 ratio.

Turning to B7, the “Relative activity ratio” value is 0.19 ratio.

B8: the “Relative activity ratio” value came to 1.62 ratio.

Regarding B9, the “Relative activity ratio” value is 2.91 ratio.

For the molecule B10, the “Relative activity ratio” value turned out to be 0.84 ratio.

On to B11, for which the “Relative activity ratio” value was determined as 2.02 ratio.

Take B12: the “Relative activity ratio” value came to 3.08 ratio.

As for B13, the “Relative activity ratio” value was 2.65 ratio.

For B14, the “Relative activity ratio” value was 1.51 ratio.

For B15, the “Relative activity ratio” value came to 0.9 ratio.

As for B16, the “Relative activity ratio” value stood at 4.76 ratio.

Consider B17, for which the “Relative activity ratio” value was determined as 1.42 ratio.

Consider B18, for which the “Relative activity ratio” value was 0.87 ratio.

As to B19, the “Relative activity ratio” value stood at 1 ratio.

On to B20, for which the “Relative activity ratio” value turned out to be 3.87 ratio.

With B21, the “Relative activity ratio” value came out at 3.38 ratio.

For B22, the “Relative activity ratio” value was 1.89 ratio.
